Each structure is given as a SMILES string. Square brackets hold non-standard residues; d marks the D form. Peptide text beside a SMILES is read from it. * marks the point of attachment. DOTA = O=C(O)CN1CCN(CC(=O)O)CCN(CC(=O)*)CCN(CC(=O)O)CC1

Data set [1] relates to Jurkat xenografts. The data set is classed as in vivo, mouse. Particulars: 1 h p.i., SPECT/CT or PET/CT. Here is the method:
The ability of the ^177Lu ligands to target CXCR4 in vivo was assessed by SPECT/CT imaging in Jurkat xenografts. […] 1 h after injection, the remaining amount of radioligand in the body (and vice versa, the washout) was quantified by measuring the total body activity (mouse) in a dose calibrator. The % of the radioligand remaining in the body after 1 h is reported in Figure 6A as % of the remaining activity in reference to the injected activity (100%).
Figure 6 SPECT/CT images as maximum intensity projections (MIPs) of Jurkat tumor-bearing mice at 1 h p.i. of ^177Lu-labeled ligands (200 pmol, ∼15 MBq). […] (B) Same SPECT/CT images of ^177Lu-1, ^177Lu-2, ^177Lu-5, and ^177Lu-6, adapted in a lower scale. T: tumor, L: liver, and K: kidneys. […] TEXT PRINTED IN THE PICTURE: (A) ^177Lu-1: Remaining Activity (% injected): 6 % | (A) ^177Lu-2: Remaining Activity (% injected): 7 % | (A) ^177Lu-5: Remaining Activity (% injected): 7 % | (A) ^177Lu-6: Remaining Activity (% injected): 8 % | (A) ^177Lu-7: Remaining Activity (% injected): 55 % | (A) ^177Lu-9: Remaining Activity (% injected): 94 %
(§1) The experimental protocol involving animals was approved by the Veterinary Office (Department of Health) of the Cantonal Basel-Stadt (Approval No. 30515) in accordance with the Swiss regulations for animal treatment. Female athymic nude-Foxn1^nu/Foxn1^+ mice (Envigo, The Netherlands), 4–6 weeks old, were injected subcutaneously with 10^7 Jurkat cells in a 200 μL (1:1) mixture of PBS and Matrigel (CorningMatrigelMembrane matrix, Fischer Scientific, Germany) on the right shoulder. The tumors were allowed to grow for 3–4 weeks before commencement of the experiments.
Nude mice bearing Jurkat xenografts were intravenously injected via the tail vein with ∼15 MBq (200 pmol) of the ^177Lu ligands and 8 MBq (200 pmol) of ^68Ga-7 were euthanized 1 h post injection (p.i.). The radioactivity in the syringe before and after injection was measured followed by measuring the amount of radioactivity remaining in the sacrificed mice. […]

The nature of the next data set: in vivo. Particulars: female, athymic nude-Foxn1^nu/Foxn1^+, mouse, iv, 200 pmol, total radioactivity. As to the method: (§2) Quantification of the total body distribution of ^177Lu-7 and ^68Ga-7 was performed in Jurkat xenografted mice after intravenous injection of 100 μL, 200 pmol, with […], respectively (n = 5). The mice were sacrificed at 1 h p.i. ^177Lu-7 and ^68Ga-7 accumulated mainly in the kidneys (83.1 ± 25.5 and 75.6 ± 30.3%IA/g, respectively, p = 0.59), liver (5.19 ± 1.08 and 4.08 ± 1.05%IA/g, respectively, p = 0.07) and tumor (2.25 ± 0.43 and 2.24 ± 0.57%IA/g, respectively, p = 0.97), as already seen in the SPECT/CT and PET/CT images (Figures 6 and 7). Uptake in the tumor was lower than for the kidneys and liver but higher as in all other tissues investigated. […] The uptake seen in the liver might be attributed, at least partially, to the fact that CXCR4 is constitutively expressed in the sinusoidal endothelial cells of the murine liver[38] or could be related to another yet-unknown mechanism previously reported for other CXCR4-targeting probes.[11],[39] Regretfully, there are no direct measurements available for the affinity of ^177Lu-7 with the murine CXCR4 (mCXCR4). This is relevant for assessing its total body distribution. However, we have shown that EPI-X4 and EPI-X4 derivatives are active in mouse models of inflammatory diseases[22],[25] and cancer.[40] More specifically, EPI-X4 derivatives such as JM#21 reduced immune cell influx in lungs of mice suffering from allergic asthma or reduced skin inflammation in a murine model of atopic dermatitis upon topical administration. […] Thus, we speculate that the DOTA conjugate of JM#173 (ligand-7) also cross-reacts to the mCXCR4. […] Last, but not the least, the uptake in the kidneys was predominant, and given the highly hydrophilic character of ^177Lu-7, is attributed, at least partially, to its excretion via this path.
as §1
(§3) Quantitative biodistribution studies of ^177Lu-7 (100 μL, 200 pmol, 0.8–1 MBq) and ^68Ga-7 (100 μL, 200 pmol, 2–3 MBq) were performed after intravenous injection of the radioligand via the tail vein on Jurkat xenografts. […] 1 h after injection of the radioligand, mice were sacrificed, organs of interest and blood were collected, rinsed of excess blood, blotted dry, weighed, and counted in a γ-counter. The samples were counted against a suitable diluted aliquot of the injected solution as the standard and the results are expressed as percentage injected activity per gram of tissue (%IA/g). Statistical analysis between selected organs was performed by Welch’s t-test and p values <0.05 were considered statistically significant.

Data set [2] concerns Jurkat xenografts. The data set can be described thus: in vivo. To be noted: female, athymic nude-Foxn1^nu/Foxn1^+, mouse, iv, 200 pmol, 1 h. As to the method: as §2, §1, §3
In another data set the test system is Ghost-CXCR4 cells. The data set can be described thus: Cellular uptake and distribution in Ghost-CXCR4 cells. The data set is classed as cell-based, human. Particulars: 37 °C, 60 min. As to the method:
Figure 4 In vitro assessment in Ghost-CXCR4 cells at 37 °C. […] Each experiment was performed in triplicate. Results are means ± SD [% of applied activity] from a minimum of two separate experiments. […] Cellular uptake was interrupted at 15, 30, and 60 min by removing the medium and washing twice with ice-cold PBS. The cell surface-bound radioligand was obtained by washing cells twice with ice-cold glycine buffer (pH 2.8) followed by a collection of the internalized fraction after treating the cells with 1 M sodium hydroxide (NaOH). The activity in each fraction was measured in a γ-counter. […] The results were expressed as a percentage of the applied radioactivity after subtracting the nonspecific uptake.

As a reminder, the tissue uptake is the share of the injected amount in each gram of the tissue. With `CC[C@@H](C)[C@@H](N)C(=O)N[C@@H](CC(C)C)C(=O)N[C@@H](CCCNC(=N)N)C(=O)N[C@@H](Cc1c[nH]c2ccccc12)C(=O)N[C@@H](CO)C(=O)N[C@@H](CCCNC(=N)N)C(=O)N[C@@H](CCCCN)C(=O)N[C@@H](CCCCNC(=O)CN1CCN(CC(=O)O)CCN(CC(=O)O)CCN(CC(=O)O)CC1)C(N)=O` [^177Lu-7, metal not drawn] (H-[dI]LRWSRKK(DOTA)-NH2; N-terminus assumed), in the data set on Jurkat xenografts [1], the “visualization of CXCR4-expressing tumor xenograft by imaging” value is “accumulated and visualized the CXCR4-expressing tumor xenograft”. In addition, the tissue uptake at 1 h in the data set “in vivo” (uptake in blood) came to 0.42 ± 0.12 %ID/g; in “in vivo” (uptake in femur), 1.06 ± 0.28 %ID/g; in the data set “in vivo” (uptake in heart), 0.21 ± 0.05 %ID/g; in the data set “in vivo” (uptake in intestine) it was 0.37 ± 0.1 %ID/g; in “in vivo” (uptake in kidney), 83.1 ± 25.5 %ID/g; in the data set “in vivo” (uptake in liver), 5.19 ± 1.08 %ID/g. In addition, the tissue uptake at 1 h came out at 0.27 ± 0.14 %ID/g in “in vivo” (uptake in muscle); 0.14 ± 0.02 %ID/g in “in vivo” (uptake in pancreas); 0.81 ± 0.16 %ID/g in “in vivo” (uptake in spleen); 0.3 ± 0.06 %ID/g in “in vivo” (uptake in stomach); 2.25 ± 0.43 %ID/g in “in vivo” (uptake in tumor). The compound also had an uptake in adrenal in the data set with Jurkat xenografts [2] of 1.09 ± 0.42 % IA/g. In addition, the “cellular uptake (% of the applied activity)” value with Ghost-CXCR4 cells is 7.90 ± 1.48%.

Source of the values: article PMC10350915, “Development of a New Class of CXCR4-Targeting Radioligands Based on the Endogenous Antagonist EPI-X4 for Oncological Applications” (Journal of Medicinal Chemistry, 2023).
